Results as given in patent US20260217835.
Substitutions are numbered along the chain they refer to. In names and notes the source's numbering stands.

T1: IgG1 Fc fragment with CH3 modification Q347E/S354Y/T366Y/Y407T (SEQ ID NO: 69)
T1 chain: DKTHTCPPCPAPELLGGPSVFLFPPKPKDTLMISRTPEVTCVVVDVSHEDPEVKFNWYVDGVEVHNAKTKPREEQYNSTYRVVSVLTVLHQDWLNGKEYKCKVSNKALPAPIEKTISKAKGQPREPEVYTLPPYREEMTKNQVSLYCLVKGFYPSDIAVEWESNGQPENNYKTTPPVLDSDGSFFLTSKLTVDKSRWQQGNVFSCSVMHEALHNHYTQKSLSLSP

T2: IgG1 Fc fragment with CH3 modification Y349C/E357C/K392D/D399K (SEQ ID NO: 73)
T2 chain: T1 chain with E127Q, Y129C, Y134S, E137C, Y146T, K172D, D179K, T187Y

T3: IgG1 Fc fragment with CH3 modification Q347R/K360E/D399V/F405T/K409W (SEQ ID NO: 66)
T3 chain: T1 chain with E127R, Y134S, K140E, Y146T, D179V, F185T, T187Y, K189W

T4: IgG1 Fc fragment with CH3 modification E345R/Q347R/K360D/T366V/D399M/Y407A/K409V (SEQ ID NO: 74)
T4 chain: T1 chain with E125R, E127R, Y134S, K140D, Y146V, D179M, T187A, K189V

T5: IgG1 Fc fragment with CH3 modification K392D/D399K/K409D (SEQ ID NO: 72)
T5 chain: T1 chain with E127Q, Y134S, Y146T, K172D, D179K, T187Y, K189D

T6: IgG1 Fc fragment with CH3 modification E345R/K360E/D399M/Y407A/K409V (SEQ ID NO: 76)
T6 chain: T1 chain with E125R, E127Q, Y134S, K140E, Y146T, D179M, T187A, K189V

T7: IgG1 Fc fragment with CH3 modification E356K/K392D/D399K/K409D (SEQ ID NO: 75)
T7 chain: T1 chain with E127Q, Y134S, E136K, Y146T, K172D, D179K, T187Y, K189D

T8: IgG1 Fc fragment with CH3 modification T366W/L368A/Y407V (SEQ ID NO: 65)
T8 chain: T1 chain with E127Q, Y134S, Y146W, L148A, T187V

B1: full-length IgG heavy chain with CH3 modification Y349C/E357C/K392D/D399K (SEQ ID NO: 51), coexpressed with light chain SEQ ID NO: 61 (protein)
chain 1: QVQLQESGPGLVRPSQTLSLTCTVSGYSITSDHAWSWVRQPPGRGLEWIGYISYSGITTYNPSLKSRVTMLRDTSKNQFSLRLSSVTAADTAVYYCARSLARTTAMDYWGQGSLVTVSSASTKGPSVFPLAPSSKSTSGGTAALGCLVKDYFPEPVTVSWNSGALTSGVHTFPAVLQSSGLYSLSSVVTVPSSSLGTQTYICNVNHKPSNTKVDKRVEPKSCDKTHTCPPCPAPELLGGPSVFLFPPKPKDTLMISRTPEVTCVVVDVSHEDPEVKFNWYVDGVEVHNAKTKPREEQYNSTYRVVSVLTVLHQDWLNGKEYKCKVSNKALPAPIEKTISKAKGQPREPQVCTLPPSRECMTKNQVSLTCLVKGFYPSDIAVEWESNGQPENNYDTTPPVLKSDGSFFLYSKLTVDKSRWQQGNVFSCSVMHEALHNHYTQKSLSLSP
chain 2: not shown
B2: full-length IgG heavy chain with CH3 modification E345R/K360E/D399M/Y407A/K409V (SEQ ID NO: 58), coexpressed with light chain SEQ ID NO: 61 (protein)
chain 1: B1 chain 1 with E347R, C351Y, C359E, K362E, D394K, K401M, Y409A, K411V
chain 2: not shown
B3: full-length IgG heavy chain with CH3 modification E345R/Q347R/K360D/T366V/D399M/Y407A/K409V (SEQ ID NO: 55), coexpressed with light chain SEQ ID NO: 61 (protein)
chain 1: B1 chain 1 with E347R, Q349R, C351Y, C359E, K362D, T368V, D394K, K401M, Y409A, K411V
chain 2: not shown
B4: full-length IgG heavy chain with CH3 modification E356K/K392D/D399K/K409D (SEQ ID NO: 56), coexpressed with light chain SEQ ID NO: 61 (protein)
chain 1: B1 chain 1 with C351Y, E358K, C359E, K411D
chain 2: not shown
B5: full-length IgG heavy chain with CH3 modification T350V/L351Y/T366L/K392L/T394W/F405A/Y407V (SEQ ID NO: 60), coexpressed with light chain SEQ ID NO: 61 (protein)
chain 1: B1 chain 1 with C351Y, T352V, L353Y, C359E, T368L, D394L, T396W, K401D, F407A, Y409V
chain 2: not shown

Target: T1, IgG1 Fc fragment with CH3 modification …
Assay: SEC area ratio of heteromultimer after coexpression of full-length heavy chain, light chain and Fc fragment in Expi293F

B1 and B2 are the same in heterodimer formation ratio (%): 0% for the first, 0% for the second.

B3 and B4 are the same in heterodimer formation ratio (%): 0% for the first, 0% for the second.

Work on B5 yielded a heterodimer formation ratio (%) of 0%.

Target: T2, IgG1 Fc fragment with CH3 modification …
Assay: as above

Going from B1 to B2, the heterodimer formation ratio (%) falls from 56% to 0%.

B3 and B4 are the same in heterodimer formation ratio (%): 0% for the first, 0% for the second.

In the case of B5, the heterodimer formation ratio (%) is reported as 0%.

Target: T3, IgG1 Fc fragment with CH3 modification …
Assay: as above

Compared with B1, B2 is higher in heterodimer formation ratio (%): 0% for the first, 4% for the second.

Going from B3 to B4, the heterodimer formation ratio (%) falls from 6% to 0%.

B5 was tested, and the heterodimer formation ratio (%) was 0%.

These proteins were tested against IgG1 Fc fragment, WT (no CH3 modification), SEQ ID NO: 63 in Table 5 in the same assay as above.

B1 and B2 are the same in heterodimer formation ratio (%): 0% for the first, 0% for the second.

B3 and B4 are the same in heterodimer formation ratio (%): 0% for the first, 0% for the second.

For B5, the heterodimer formation ratio (%) was 0%.

Target: T4, IgG1 Fc fragment with CH3 modification …
Assay: as above

Going from B1 to B2, the heterodimer formation ratio (%) rises from 2% to 51%.

Going from B3 to B4, the heterodimer formation ratio (%) falls from 52% to 0%.

B5 was tested, and the heterodimer formation ratio (%) was 0%.

Each protein was assayed against IgG1 Fc fragment with CH3 modification T394F/F405A (SEQ ID NO: 67) in the same assay as above.

B1 and B2 are the same in heterodimer formation ratio (%): 0% for the first, 0% for the second.

B3 and B4 are the same in heterodimer formation ratio (%): 0% for the first, 0% for the second.

B5 showed a heterodimer formation ratio (%) of 4%.

Target: T5, IgG1 Fc fragment with CH3 modification …
Assay: as above

Going from B1 to B2, the heterodimer formation ratio (%) falls from 9% to 3%.

First: B3
Second: B4
The heterodimer formation ratio (%) of the first is lower: 0% for the first, 51% for the second.

Protein B5 has a heterodimer formation ratio (%) of 0%.

Target: T6, IgG1 Fc fragment with CH3 modification …
Assay: as above

Compared with B1, B2 is higher in heterodimer formation ratio (%): 0% for the first, 51% for the second.

Compared with B3, B4 is lower in heterodimer formation ratio (%): 49% for the first, 0% for the second.

B5 was tested, and the heterodimer formation ratio (%) was 0%.

Target: T7, IgG1 Fc fragment with CH3 modification …
Assay: as above

B1 and B2 are the same in heterodimer formation ratio (%): 0% for the first, 0% for the second.

Compared with B3, B4 is higher in heterodimer formation ratio (%): 0% for the first, 56% for the second.

For B5, the heterodimer formation ratio (%) was 0%.

Target: T8, IgG1 Fc fragment with CH3 modification …
Assay: as above

B1 and B2 are the same in heterodimer formation ratio (%): 0% for the first, 0% for the second.

B3 and B4 are the same in heterodimer formation ratio (%): 0% for the first, 0% for the second.

B5 gave a heterodimer formation ratio (%) of 0%.
